In patent US20190144550A1:

Molecular target: wild-type EGFR expressed on cells (human) (UniProt P00533)
Assay: flow cytometry, A431 cells

“FITC-conjugated goat anti-mouse Fc specific secondary antibody” showed an MFI of 185.
